In experiment [1] the target is α subunit of rat LSR (product of cDNA LSR-Rn-2097) (rat) (UniProt Q9WU74). Briefly: flotation of 35S-labelled in vitro translated LSR with 100 µg/ml LDL and 1 mM oleate, against no oleate.
The target of experiment [2] is β subunit of rat LSR (product of cDNA LSR-Rn-1893) (rat) (UniProt Q9WU74). Described as above.
β subunit of rat LSR (product of cDNA LSR-Rn-1893) (rat), sequence (Q9WU74 other isoform, or with tags, fused parts or gaps limits assumed): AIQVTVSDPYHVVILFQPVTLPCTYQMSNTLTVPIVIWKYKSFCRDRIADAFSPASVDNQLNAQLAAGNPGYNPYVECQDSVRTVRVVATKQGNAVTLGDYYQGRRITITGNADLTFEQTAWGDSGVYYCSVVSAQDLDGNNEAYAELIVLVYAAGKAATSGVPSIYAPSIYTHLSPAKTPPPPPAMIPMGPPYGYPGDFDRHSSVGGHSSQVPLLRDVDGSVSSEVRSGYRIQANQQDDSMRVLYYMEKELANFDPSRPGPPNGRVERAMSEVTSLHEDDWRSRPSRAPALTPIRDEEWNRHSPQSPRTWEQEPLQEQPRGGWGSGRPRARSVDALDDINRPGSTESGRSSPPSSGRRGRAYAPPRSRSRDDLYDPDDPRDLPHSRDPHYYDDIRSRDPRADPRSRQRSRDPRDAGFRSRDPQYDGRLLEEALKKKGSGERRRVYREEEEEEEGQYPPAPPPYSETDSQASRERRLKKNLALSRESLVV

α subunit of rat LSR (product of cDNA LSR-Rn-2097) (rat), sequence (Q9WU74 36-593 limits assumed): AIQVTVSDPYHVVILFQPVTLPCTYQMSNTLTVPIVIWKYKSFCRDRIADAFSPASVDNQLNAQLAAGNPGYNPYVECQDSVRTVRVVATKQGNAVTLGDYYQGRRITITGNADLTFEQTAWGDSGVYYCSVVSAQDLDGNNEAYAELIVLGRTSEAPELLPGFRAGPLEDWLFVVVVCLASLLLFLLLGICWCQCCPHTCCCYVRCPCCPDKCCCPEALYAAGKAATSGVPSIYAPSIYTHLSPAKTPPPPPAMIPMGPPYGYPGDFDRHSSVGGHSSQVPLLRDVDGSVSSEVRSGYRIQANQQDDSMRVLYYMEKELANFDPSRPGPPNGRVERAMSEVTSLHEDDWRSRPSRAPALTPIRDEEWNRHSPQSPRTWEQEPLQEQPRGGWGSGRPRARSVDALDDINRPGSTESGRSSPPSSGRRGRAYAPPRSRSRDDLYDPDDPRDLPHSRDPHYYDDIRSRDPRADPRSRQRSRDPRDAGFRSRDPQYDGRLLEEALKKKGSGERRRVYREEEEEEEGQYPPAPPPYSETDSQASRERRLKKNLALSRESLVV

As to “LDL (low-density lipoprotein, 1.025<d<1.055 g/ml) isolated from plasma of volunteers, P04114 28-4563”, the values for the factor of increase of LDL binding by oleate in experiment [1] and in experiment [2] were 5 fold and 2 fold, respectively.

(Values after patent US6635431.)
